Source: US8962263B2, “Methods and compositions for detecting the activation state of multiple proteins in single cells” (The Board of Trustees of the Leland Stanford Junior …, priority 2001, dated 2015)

B1: ICAM-2: biochemically purified soluble human ICAM-2 protein from retrovirally transduced NIH3T3 cells; ICAM-2-FC fusion also used (protein, UniProt P13598 25-223, looked up)
extracellular domain: KVFEVHVRPKKLAVEPKGSLEVNCSTTCNQPEVGGLETSLDKILLDEQAQWKHYLVSNISHDTVLQCHFTCSGKQESMNSNVSVYQPPRQVILTLQPTLVAVGKSFTIECRVPTVEPLDSLTLFLFRGNETLHYETFGKAAPAPQEATATFNSTADREDGHRNFSCLAVLDLMSRGGNIFHKHSAPKMLEIYEPVSDSQ
modifications: extracellular domain
notes: biochemically purified soluble human ICAM-2 protein from retrovirally transduced NIH3T3 cells; ICAM-2-FC fusion also used

Columns and labels:
NIH3T3 = experiment: staurosporine induced apoptosis in ICAM-2 transduced NIH3T3 (annexin-V binding, BrdU TUNEL); format: cell-based, murine
Method in brief: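 ICAM-2, ICAM2-ΔC or vector-transduced NIH3T3 cells treated with 1 μM staurosporine, with or without 10 μM LY294002, 24 h; DMSO vehicle control. Apoptosis by flow cytometry: annexin-V-FITC/PI at 12 h, BrdU TUNEL at 24 h; percent apoptotic cells, mean ± SD of triplicate cultures.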

[1] = test system: CD56 CD8 cytotoxic lymphocyte subsets; experiment: intracellular perforin and granzyme-A in CD56CD8 subsets of human PBMC by flow cytometry; format: cell-based
Protocol: IL-2, activated PBMC (shown in A-1 and A-3) were mock-treated (IgG) (A-2) , ICAM-1, (A2), ICAM-2, (A4), or ICAM-3, (A4) treated (10, μg/ml of FC fusion protein) for 12 hrs prior to incubation with target HL60, cells at a 50:1, E:T ratio for 4, hrs. Cells were then prepared for flow cytometry with CD8-CY5PE, CD56-PE surface stains, and perforin-CY5, and granzyme-A-FITC intracellular stains. Cells were gated for CD56^+CD8^low, CD56^+CD8^med, CD56^+, CD8^high, CD56^−, CD8^−, , CD56^−-CD8^high, populations as shown in A-1 and A-3 and population frequencies within appropriate gate. […] Results are representative of 3 independent experiments and were similar at 25:1 and 12.5:1 E:T ratios (data not shown). Manual calibration was performed. […] Perforin percentage was calculated from the following equation where MFI equals mean fluorescent intensity: 100×[(MFIexperimental−MFIisotype mAb)/(MFIcontrol−MFlisotype mAb)] Unstimulated cells were used as control.
Target cell lysis was measured by flow cytoemtric based detection of CFSE labeled HL60 cells. HL60 cells were labeled with 1 μg of CFSE (30 min, 37° C.). Targets were washed twice and mock treated, IL-2 activated (100 U/ml), CD3/CD28 activated (1 μg/ml), or treated with ICAM2 beads or soluble ICAM-1, -2, or 3 (10 μg/ml, 30 min, 37° C.) before plating at 10^4 target cells/well of a 96-well round bottom plate. CTLs were added at 50:1, 25:1, and 12.5:1 E:T ratio, and incubated at 37° C. for 4 hrs. Cells were then processed for multiparameter flow cytometry and intracellular perforin stain. Percent specific lysis was calculated by the following equation: % specific lysis=100-100×(experimental HL60 count/total control HL60 count). HL60 counts were detectable by the CFSE fluorescence. Percent perforin was calculated by the following equation: % perforin=100×[(experimental perforin MFI−isotype mAb MFI)/(total perforin MFI−isotype mAb MFI)]. MFI refers to mean fluorescent intensity of flow cytoemtric based intracellular detection. Cell conjugates were determined by flow cytometry as described (Morgan et al., 2001). Chemical inhibition was done at 10 μM of indicated compound (30 min, 37° C.) prior to stimulation as indicated. All experiments were performed in triplicate.

LFA-1 = LFA-1 (Homo sapiens, UniProt P20701); settings: cited from earlier work
LFA-1, sequence (P20701 26-1170): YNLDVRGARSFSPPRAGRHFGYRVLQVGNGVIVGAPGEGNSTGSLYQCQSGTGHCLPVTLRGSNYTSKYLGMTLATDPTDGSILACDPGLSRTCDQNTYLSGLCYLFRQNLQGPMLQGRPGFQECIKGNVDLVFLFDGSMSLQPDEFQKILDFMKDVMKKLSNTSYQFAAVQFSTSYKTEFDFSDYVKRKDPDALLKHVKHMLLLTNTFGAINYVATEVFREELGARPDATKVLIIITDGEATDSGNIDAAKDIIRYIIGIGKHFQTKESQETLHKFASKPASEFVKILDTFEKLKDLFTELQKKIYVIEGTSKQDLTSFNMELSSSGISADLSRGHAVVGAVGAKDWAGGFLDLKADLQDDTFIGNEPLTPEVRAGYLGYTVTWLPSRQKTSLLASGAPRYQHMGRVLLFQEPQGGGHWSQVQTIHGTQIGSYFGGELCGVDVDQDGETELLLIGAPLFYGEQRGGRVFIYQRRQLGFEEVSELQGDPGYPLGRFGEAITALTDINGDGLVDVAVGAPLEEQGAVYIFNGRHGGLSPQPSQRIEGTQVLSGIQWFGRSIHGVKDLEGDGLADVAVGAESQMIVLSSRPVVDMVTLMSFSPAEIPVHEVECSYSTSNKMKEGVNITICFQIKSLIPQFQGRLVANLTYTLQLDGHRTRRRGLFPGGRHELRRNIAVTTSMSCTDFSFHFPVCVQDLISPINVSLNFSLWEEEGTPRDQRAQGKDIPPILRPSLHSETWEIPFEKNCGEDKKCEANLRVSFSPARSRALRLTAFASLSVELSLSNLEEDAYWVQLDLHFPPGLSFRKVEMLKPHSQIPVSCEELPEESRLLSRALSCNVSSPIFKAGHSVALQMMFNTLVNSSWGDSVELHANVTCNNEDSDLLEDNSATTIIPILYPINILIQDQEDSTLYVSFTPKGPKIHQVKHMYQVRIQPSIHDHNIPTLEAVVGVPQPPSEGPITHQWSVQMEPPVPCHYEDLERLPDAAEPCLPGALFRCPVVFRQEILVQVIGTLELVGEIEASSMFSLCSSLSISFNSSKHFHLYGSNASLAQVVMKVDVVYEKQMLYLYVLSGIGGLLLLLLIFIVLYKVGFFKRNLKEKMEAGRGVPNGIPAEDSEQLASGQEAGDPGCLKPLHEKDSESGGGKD
LFA-1, sequence (P05107 23-769 partner): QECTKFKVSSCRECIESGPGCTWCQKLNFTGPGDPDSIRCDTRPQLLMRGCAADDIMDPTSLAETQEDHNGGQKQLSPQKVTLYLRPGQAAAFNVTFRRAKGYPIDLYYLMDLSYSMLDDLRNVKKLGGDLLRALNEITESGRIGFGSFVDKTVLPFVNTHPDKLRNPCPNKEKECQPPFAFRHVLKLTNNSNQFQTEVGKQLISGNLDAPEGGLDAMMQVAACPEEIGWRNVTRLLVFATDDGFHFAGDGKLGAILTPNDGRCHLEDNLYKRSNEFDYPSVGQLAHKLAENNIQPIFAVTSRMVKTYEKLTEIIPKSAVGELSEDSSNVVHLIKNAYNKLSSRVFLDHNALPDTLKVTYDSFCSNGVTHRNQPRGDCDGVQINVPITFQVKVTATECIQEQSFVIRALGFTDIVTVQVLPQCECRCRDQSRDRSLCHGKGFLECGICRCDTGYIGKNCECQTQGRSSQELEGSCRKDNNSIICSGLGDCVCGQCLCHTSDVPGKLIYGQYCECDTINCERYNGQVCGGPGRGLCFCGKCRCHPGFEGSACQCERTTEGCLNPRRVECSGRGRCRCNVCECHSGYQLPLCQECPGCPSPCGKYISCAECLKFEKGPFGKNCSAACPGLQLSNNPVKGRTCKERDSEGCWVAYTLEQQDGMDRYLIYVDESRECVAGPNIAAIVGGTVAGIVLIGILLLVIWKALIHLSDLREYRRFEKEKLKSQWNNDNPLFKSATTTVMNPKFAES

Row | Molecule | ICAM-2 induced survival signal (NIH3T3; PKC isozyme inhibitors, system not specified) | effect on ICAM-2 anti-apoptotic effect, other kinase inhibitors (NIH3T3; cell type not stated, data not shown) | granzyme-A negative population ([1]; CD56+CD8high population) [%] | changes in intracellular perforin or granzyme-A ([1]; CD56+CD8low population) | frequency of the perforin negative population ([1]; CD56+CD8med population) [%] | concentration inducing LFA-1 mediated adhesion (LFA-1; bulk cellular adhesion assay) [µM] | fold lower ICAM-2 soluble protein concentration compared with P1 (LFA-1) [fold]
1 | CN(C)CCCn1cc(C2=C(c3c[nH]c4ccccc34)C(=O)NC2=O)c2ccccc21 [bisindolymaleimide I] | did not abrogate | not abrogated |  |  |  |  | 
2 | B1 |  |  | 58.3 | no significant changes | 21.5 | 1.3 | 48
